Results: PMC8205527, “Structural basis for the coiled-coil architecture of human CtIP” (Open Biology, 2021)

Target: the molecule itself
Assay: SEC-SAXS; Superdex 200 Increase 3.2/300 in 20 mM Tris HCl 8.0, 300 mM NaCl; protein at 3–10 mg/ml; Guinier analysis, P(r), MONSA and BilboMD modelling

B1: CtIP-NTD (18–145) (domain or fragment, human, UniProt Q99708 18-145, looked up)
chain: SDFKDLWTKLKECHDREVQGLQVKVTKLKQERILDAQRLEEFFTKNQQLREQQKVLHETIKVLEDRLRAGLCDRCAVTEEHMRKKQQEFENIRQQNLKLITELMNERNTLQEENKKLSEQLQQKIEND
notes: also called CtIP N-terminal domain; source: E. coli BL21(DE3) Rosetta 2, purified (Ni-NTA, TEV cleavage, Strep-Tactin, SEC); not shown: His6, N-terminal, cleaved; MBP, N-terminal, cleaved
Q: With B1 as the protein, how does the “stoichiometry N” value read?
A: 4

B2: CtIP-cNTD 31–145 (wild type) (domain or fragment, human, UniProt Q99708 31-145, looked up)
chain: HDREVQGLQVKVTKLKQERILDAQRLEEFFTKNQQLREQQKVLHETIKVLEDRLRAGLCDRCAVTEEHMRKKQQEFENIRQQNLKLITELMNERNTLQEENKKLSEQLQQKIEND
notes: also called wild-type CtIP-cNTD; C-terminal NTD; source: E. coli BL21(DE3) Rosetta 2, purified (Ni-NTA, TEV cleavage, Strep-Tactin, SEC); not shown: His6, N-terminal, cleaved; MBP, N-terminal, cleaved
Q: Which “stoichiometry N” value does the source give for B2 here?
A: 2
